Reference: the domain aggregation screens of Martell et al. (2025)

experiment: soluble fraction after stress (log2 fold change); higher = more stays soluble; pooled small domains, quantitative proteomics; conditions: stress: 75 degC
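Also: 20 min heating vs room temperature control held 20 min.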

Sequence | soluble fraction (log2)
HMTANPSTEEIMARVEAIPLPIKRLPPGQIVQAQTVAATVLRSNPGLDLAKAWKLAYATVTGQE | -0.15
HMTANTQVENIRLELQRYMDEHGISQVTVARGIGKTHPVISQFLNNKYPGDVEEVARAIESWLTKQHEKAA | -0.128
HMTAPELGIRQDGNTLVIFWPSSVTGYVLKSADAVDTPPASWTSVTHTTVGDEHRAEITPTGNSRFFRLV | -0.156
HMTAPQAQDYARVPDVLGLDMRESAQALRLDGFEMNAQGDGLAARQSPIGGSYAPEGTQVLVTFEM | 0.053
HMTAQLAAQERTHALDMFMGGYKFSSKPAENGVRAEFEKKNFTLEDGKFLGGDEFMKSLMENDDYKGAFV | 0.406
HMTASKSTVSTPEKVVYHIVFPKETKYSIAKKYGITIEELEKRNPEIIPSLSVGQKLVIKGTAPK | -0.236
HMTATDRQLQLIAYTAARLMAEQGIADFNAAKRKAIQTLGLPNNAKLPGNADVEAQLRAYQRIF | -0.605
HMTATKDLPFSTFITEVEKGNITSVDIKGNQIEGTFSNGAKFKTYSPNYPNLVERLADKGVAISAGPS | 0.0934
HMTAVPADVETVTGFTALDRAGLDTLLARLGLAMDLEDLSFLQAYFRDTERRDPTLTEIRVVDTYWSDH | -1.1
HMTDAEQHEALLFKQVVDGLPQTLRDTFVLSRHAGMTYAEISAHTGTPIKTVESRMAKALELIAQRMR | -1.27
HMTDDALIGKTAQVTVAIKPGSVGQITARVGDERVERLARASADAEIAAGSLVTIKSIAGDSVIVAPE | 0.317
HMTDDPGLSRAENRELQTLLLDRGHDIGQPDGLIGAKTRAAIRAEQSRLNMPVNGRGGQKLLRALRL | 0.262
HMTDFLKTRIDTLGLSTRTLNALSEANVRTIGGIARKKQEDLLEIDGIGEKGIQEIKKMLGEYGITL | -0.303
HMTDFSDLSFKYNSEEKDVLNSINLKINGGEMTSLVGHSGAGKTTILNLIPRFYEKSKGDISIDGQSIY | 0.0241
HMTDGLTVPMQGVVIRYKAKKGDKVAVGDAVAVLEAMKMEQNIFANKSGTIKEIYIKEGTTVTPGDVLMSI | -0.315
HMTDLNDTQIKILELLSADASLSAAKMAGQLGIAGRNVEANIKKLKEKGILIRHGSPKSGYWEIVN | -0.349
HMTDNSTTTIRNLKIEWLLEEIRNAVRTGVSVDAAVERISNNPFVKPPEDLLNEARIIFLQNAGQI | -0.79
HMTDPVLYEERDDIAIITINRPEKKNTLTDAVIQGIADGIDAATKSADVVAVVLRGAGDTLTAGYDLTA | 0.213
HMTDSDTQDIDVGELRVGHFVFLDLSWIRHPFPLSSFKIQSAEQIKTIRSLGLRRIRYSPGRSGP | -1.31
HMTDSSEILEAALKEAEDAAHEVLNGTFSVQLEPQKAYIRRLQHMLIDRMNLSSTSKGKEPYRSLLVYR | -1.41
HMTDTDVLSSRLSALSSGRTSAVRLRDGVLSLVLDVGGLSIEARKAMTTAIESTARATPGVEAVRIAET | -0.479
HMTDTSFPRLGAPEEELLSFLAKWEIDAEDAHYTKFSLYYQSTGKMMRDWKATWRAWKERQSELNAQR | -2.33
HMTDVGLEAAKAAALKHAGLSADQVTGLTAKLDWDDGQRVYEVDFWQGSTEYEYEINADGTVRQYESEAH | ≥ 1.04

Sequence | soluble fraction (log2)
HMTDVRFIDIPVTEHHPWNGMKVRDLQLPPGTLLVFLSHPGEKNTVPHGETVLRSGDVLVLGATAYTGQ | -0.753
HMTDVRFISIPIQKEHPWNRKLVSELNLPPGTLLVFLRRTGENIVPNGKTMIQEGDVLVLGASAYR | -1.31
HMTEALEFTVEDLRMAGLVNSSFSRRRRELFSEKLGIGYGNGKSLLKKLNGYGITREEFNGAIQSLSD | -0.817
HMTEIILTARSGRHAVRHRLEGLGYTLTPEELERVHQRFLAVADAKKEVFDEDLHALMADERGT | -0.219
HMTEKMILKWKEALERMNDDFTTKDWLNVVIHEMGKSERTAYGWLSDMKRSGIIKDLGYGSWLKVLE | -1.37
HMTEKPTREAHILDQLARDGGVLVAALSRELGVSEVTIRSDLRDLEAAGLLQRTHGGAQASSFQTVL | -0.0942
HMTELNNTQRAAVLLLALDEDSAAEVFKHLSAREVQEVSQEMAKLGNISHDQMRQVLDDFYDESEQF | -0.127
HMTELPLTPRSKRILEMSALEARRLNHSYIGTEHLLMAIIRDGDGVAAKILESLGVNLPNFYTDTVRSIE | 0.0533
HMTELSLSEQAYQQLRRMIVRLDFAPGDVLREEALQEALGMSRTPIREALQRLAREHFVTVIPRRGMFVS | -3.15
HMTELVIPDYFSKALAKNKKAKQVFEAFAYSHRKEYLQWITEAKTEETRNKRMATAIEWIAEGKGRNWKYA | -3.45
HMTEPIESVTTIAGRRIPYRLVRSLRARRMRMTIKESQVTVTLPRGVPLGEAERFLQQNAAWLFKQLDKP | -2.63
HMTESIHVGSKVTINNNAKRWATGQNIYSGVKGKTYTVIQMNGSRLLLDKVISWINKGDVHLPGS | -1.94
HMTESIKRDEAIRLNNGRIYTLDAAKIGTNEYEVMLFNPRTGEEIDSAKTSTEADAILQFDRLRRMYHR | 0.0129
HMTETELYDEVNRLIGLHLSERDRMILIMRDRDEFEIDAIAARTGLSEGNIRLILSRARRTVREAYRNNI | -4.11
HMTETNSVTINERLTLYRRSRSGRWQARVKLNTGEWHRFSTGTADFEKAKESAHRELHNVGFRAENNLPQ | -1.16
HMTFDWAAYEISEKEIRVMSLVAEGFSNKEIAQELFLSEGTVRNYISNILEKLGLRDRTQLAVHYLKAV | -3.83
HMTFENMFIENSGETLDREFLVENLRGISWQSYDRSVDVLVSRLRGKLGETPNNTRFIKTIHGVGYKFIGE | 0.353
HMTFGENLIRLRRQQGLSQEQLGMRIGVSRQTVSKWELNDTTPEMEKLIALADLFGLSLDELTGRV | -0.974
HMTFNLDVDGDDQVTALGDGLMIIRKLFGATFAGDALTNKAISPDATRTTDEIHAYIEKGITSGVLD | -0.403
HMTFPAILRELLEKHPQTGKRTTLKELGEAVGTRQQSISLYRNGDTQPSPDILVRIAAFFGVSVDYLL | -0.499
HMTFPYTSLKDAPKNMKEIDGVPLTLDQVNQIAKVADSIGVSKEKNGYAIAKSQFKKSHHIENNRWVKNK | -0.179
HMTFVHTQIEATKEWIISHPLDKHPAVAVVDSAGSIVIGEVDYISKSIVRLRFTAEFSGKAYL | -2.06
HMTGAEGKLARYLLTVPSGEPLRLSATDLAKRLGISRASLYRAFQALEDARLIRREGKSMYVLDPAGLEGV | -0.723

Sequence | soluble fraction (log2)
HMTGENWAERSRQLAAAGLLVLGKEAQEKIASLPNLIPLIEAAAASDTRLLNAQTIDELLSFVPTEETI | -0.104
HMTGESVPAPLSGTIFKILVAPGEQVEEGQTVIILEAMKMETEISAPRSGVVGAINIKEGDSVQVGQSLFT | 0.232
HMTGIKISVDRLQIGNYVKLPLNWKDHPFLFSSFAIKSQEEIDLIRRLGLKQVIMFPDKSSMPPKPV | -1.55
HMTGLSNFEFNQIKLDLMHELTQTPLRLTDLVNRITSFENEKTITVIRFLVDEGILLLKDDTLSVAKID | -3.06
HMTGMEAAEFGKRIMKLRKQKGMTQSKLAEQINVSNKAISRWETGEGFPEITLLKPLAKALGTTVDELFGE | -0.334
HMTGMEKFLTIPSIRESTAAFEREYLIHYLDENAWQVSKTAAAIGIERTTLYKKMKQLGIVPIEE | -3.22
HMTGNWRQMHKVKSKETIYGIAKEYGITVDELTKANPGMEAPGYTLKKGDYIFIPYATADANV | -0.432
HMTGQEGLIGAHGVALTRLSNEEGEVKVQGEIWQARSDQEVAKGASIEVVHVDGLVLTVRPQH | -0.0319
HMTGQLTEEELKQRQERAMSNPEIQGILSDPVMRQVLQDMSTDPKAAAEHQRNPTIMAKIQKLINAGIVQV | 0.00889
HMTGSETLQDIFAHLEAGTVRTALSLIPRLDAVEYEQNRQRIAELAGVRPSALDDLRKQAKREEN | ≥ 1.04
HMTGTKEQQVVMLNNILQKQLQAFELQGKRDYPMVTMKNMYNTLSKMVENAGLQTVESYFVDPIKGQQM | -0.694
HMTGVEAIERYLASGVIPGVGPVLAKRLVERFGARTLEVIEDSPRRLTQVPGIGRQKARQIHQALKAQRE | -0.406
HMTGYVMIRVDGLSLEKFLNMAAEAGVRVSDVRRASYTVLYAVVSPRDLKKLQSVAPEKYTVTVR | -1.18
HMTHANAALTPRHRLKVARLVVDEGWPVSEVAARFQVSWPTVKRWADRYRAGQSMQDRSSRP | -1.96
HMTHEAEDLNALRMMVRDPIFSSDEPDLQQLRGAVAHAPQFVDRFKELYNDYQRLAEFVQNSL | -0.993
HMTHFRTDERRREILSTIEADGRVSVSEIASRFDVSPVTIRSDLNYLAIQGKLKRVRGGAVLLDH | -1.17
HMTIDNPESQKIMDMVPFFFQSRNYDEAIEALTYVIEQEPQFSEAYNKRATFYFMMGDLENSMKDIEITLA | -0.29
HMTIGIGKSLDFNTSGEKAYRIYNFKGAYVGTFKASDMTSLKNEVQKSNVKAGAYMVRSLDGHVNRLIEIK | -1.49
HMTIGKIVNIIEGSYANVRSAPDQNSEPIGRAYPGDAFLVDPLGSSGDWVKVTYEGQSGFIFQAYISV | -3.94
HMTIGKRIKRRRIELKMSIDSLARTIGKDRSTVYRYESGAIDKVSSDVLAKLATALNTTPAYLIGL | -4.61
HMTIKNHIDEILKKEPFILENIKNGLINISALARQIEPQLSRKVGKKLNVNAIIMTIKRMEIDQLNK | -2.25
HMTIPNGTVVNGTVLEAREAGAYLVRVAGQTLTAQANLPLLVGQHFRAVWDSSGDIPVLRLSDAEQALLGK | -0.362
HMTIPRLPFAFAKRFGIVLDNRPSGFVAAHKEGLLPHVLLEVQRFLGDAYTLEVVSDDDFERILGQVYQT | -3.72
